In paper PMC4396682:

Columns and labels:
[1] = target: SpoVM (synthesized 26-amino-acid peptide), adsorbed on spherical supported lipid bilayers (Bacillus subtilis); assay: fluorescence microscopy of retention on bead-supported lipid bilayers after competition; 0.006 uM SpoIVA^AF488 adsorbed on SpoVM-SSLBs without ATP in buffer A with 10 mM MgCl2; then 5 uM (800-fold excess) unlabelled SpoIVA; followed over time to 72 h
[2] = target: SpoVM (synthesized 26-amino-acid peptide), adsorbed on spherical supported lipid bilayers (Bacillus subtilis); assay: fluorescence microscopy of retention on bead-supported lipid bilayers after competition; 0.006 uM SpoIVA^AF488 adsorbed on SpoVM-SSLBs with 4 mM ATP in buffer A with 10 mM MgCl2; then 5 uM (800-fold excess) unlabelled SpoIVA; followed over time to 72 h

Chain of SpoVM (synthesized 26-amino-acid peptide), adsorbed on spherical supported lipid bilayers (Bacillus subtilis) (P37817 whole entry): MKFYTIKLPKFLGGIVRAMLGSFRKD

percent of the initial SpoIVA^AF488 still adsorbed after 4 h of competition with unlabelled SpoIVA, without ATP [1]: 72% | percent of the initial SpoIVA^AF488 still adsorbed after 72 h of competition with unlabelled SpoIVA, without ATP [1]: 26% | percent of the initial SpoIVA^AF488 still adsorbed after 72 h of competition with unlabelled SpoIVA, with ATP [2]: 81%
Substance: SpoIVA^AF488 (His6-tagged cysteine-less SpoIVA variant C98S with a single engineered cysteine at the N terminus, labelled with AlexaFluor 488) (from UniProt P35149 1-492) (natural protein)
